Source: patent US20060282909A1 (published 2006)

T1: NF-AT3 full length (NFATC4) (UniProt Q14934)
T1 sequence: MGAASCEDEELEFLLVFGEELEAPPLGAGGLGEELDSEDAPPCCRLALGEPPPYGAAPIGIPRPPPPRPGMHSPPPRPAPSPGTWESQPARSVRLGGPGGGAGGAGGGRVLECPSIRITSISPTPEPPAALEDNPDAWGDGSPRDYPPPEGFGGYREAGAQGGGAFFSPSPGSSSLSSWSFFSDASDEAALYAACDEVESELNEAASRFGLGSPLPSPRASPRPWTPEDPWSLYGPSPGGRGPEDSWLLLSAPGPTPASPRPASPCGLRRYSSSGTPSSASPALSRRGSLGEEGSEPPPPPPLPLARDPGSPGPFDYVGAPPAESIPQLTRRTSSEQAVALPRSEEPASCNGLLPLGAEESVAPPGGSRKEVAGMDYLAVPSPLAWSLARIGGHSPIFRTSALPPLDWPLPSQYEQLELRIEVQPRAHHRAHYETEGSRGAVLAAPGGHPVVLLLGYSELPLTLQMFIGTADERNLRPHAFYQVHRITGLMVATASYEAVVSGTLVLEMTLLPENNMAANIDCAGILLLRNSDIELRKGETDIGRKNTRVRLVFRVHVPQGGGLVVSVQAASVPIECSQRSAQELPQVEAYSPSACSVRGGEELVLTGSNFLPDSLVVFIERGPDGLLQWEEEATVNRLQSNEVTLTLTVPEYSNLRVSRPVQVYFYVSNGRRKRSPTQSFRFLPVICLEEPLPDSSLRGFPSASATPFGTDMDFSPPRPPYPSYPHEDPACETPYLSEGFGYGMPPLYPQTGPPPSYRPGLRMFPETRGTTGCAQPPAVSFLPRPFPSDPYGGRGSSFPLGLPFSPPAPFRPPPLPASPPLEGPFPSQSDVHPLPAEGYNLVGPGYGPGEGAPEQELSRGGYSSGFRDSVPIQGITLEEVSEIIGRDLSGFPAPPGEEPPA


Key:
[1] = target: T1, NF-AT3 full length (NFATC4); assay: cell_activity; conditions: CAT reporter activation with GATA4, NF-AT3 and activated calcineurin together in rat cardiomyocytes
full-length GATA4 = full-length GATA4 (UniProt Q08369 1-441, limits assumed); assay: cell-based or functional assay
full-length GATA4, sequence (Q08369 whole entry): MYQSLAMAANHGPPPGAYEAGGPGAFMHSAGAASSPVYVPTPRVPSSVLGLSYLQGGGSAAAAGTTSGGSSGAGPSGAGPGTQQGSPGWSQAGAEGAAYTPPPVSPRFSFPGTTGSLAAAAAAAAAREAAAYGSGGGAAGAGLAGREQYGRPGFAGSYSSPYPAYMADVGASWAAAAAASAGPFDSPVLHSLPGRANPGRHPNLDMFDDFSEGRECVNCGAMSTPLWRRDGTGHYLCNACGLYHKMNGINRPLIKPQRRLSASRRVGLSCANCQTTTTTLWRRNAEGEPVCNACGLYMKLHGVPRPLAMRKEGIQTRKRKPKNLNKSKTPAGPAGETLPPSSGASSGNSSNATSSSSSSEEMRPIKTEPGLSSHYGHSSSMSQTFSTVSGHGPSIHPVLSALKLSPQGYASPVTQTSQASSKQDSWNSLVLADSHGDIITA

| activation of the BNP promoter (CAT reporter) in transfected neonatal rat cardiomyocytes (full-length GATA4) | Molecule | activity [1] |
| --- | --- | --- |
|  | BNP promoter 1800 bp | > 100 fold |
| > 100 fold | full length NF-AT3 (other) MGAASCEDEELEFLLVFGEELEAPPLGAGGLGEELDSEDAPPCCRLALGEPPPYGAAPIGIPRPPPPRPGMHSPPPRPAPSPGTWESQPARSVRLGGPGGGAGGAGGGRVLECPSIRITSISPTPEPPAALEDNPDAWGDGSPRDYPPPEGFGGYREAGAQGGGAFFSPSPGSSSLSSWSFFSDASDEAALYAACDEVESELNEAASRFGLGSPLPSPRASPRPWTPEDPWSLYGPSPGGRGPEDSWLLLSAPGPTPASPRPASPCGLRRYSSSGTPSSASPALSRRGSLGEEGSEPPPPPPLPLARDPGSPGPFDYVGAPPAESIPQLTRRTSSEQAVALPRSEEPASCNGLLPLGAEESVAPPGGSRKEVAGMDYLAVPSPLAWSLARIGGHSPIFRTSALPPLDWPLPSQYEQLELRIEVQPRAHHRAHYETEGSRGAVLAAPGGHPVVLLLGYSELPLTLQMFIGTADERNLRPHAFYQVHRITGLMVATASYEAVVSGTLVLEMTLLPENNMAANIDCAGILLLRNSDIELRKGETDIGRKNTRVRLVFRVHVPQGGGLVVSVQAASVPIECSQRSAQELPQVEAYSPSACSVRGGEELVLTGSNFLPDSLVVFIERGPDGLLQWEEEATVNRLQSNEVTLTLTVPEYSNLRVSRPVQVYFYVSNGRRKRSPTQSFRFLPVICLEEPLPDSSLRGFPSASATPFGTDMDFSPPRPPYPSYPHEDPACETPYLSEGFGYGMPPLYPQTGPPPSYRPGLRMFPETRGTTGCAQPPAVSFLPRPFPSDPYGGRGSSFPLGLPFSPPAPFRPPPLPASPPLEGPFPSQSDVHPLPAEGYNLVGPGYGPGEGAPEQELSRGGYSSGFRDSVPIQGITLEEVSEIIGRDLSGFPAPPGEEPPA |  |
